Reference: patent publication CN116063501A (HUADAO SHANGHAI BIOMEDICAL CO LTD, dated 2023)

Molecular target: T1, CD4抗原 (UniProt P01730 26-458, limits assumed)
T1 construct: whole, on cells; also called 细胞表面的CD4抗原
Test: flow cytometry on Nalm6-CD4 cells; antibody from 4 μg/mL in 4-fold steps, 10 concentrations; APC goat anti-mouse IgG secondary

B1: 抗CD4-1抗体 (antibody, V domains shown)
VH: EVQLQQSGPELVKPGDSVKMSCKASGYTFTDYFMDWVKQSHGKSLEWIGYIYPNNGGTNNNQKFKGKATLTVDKSSSTAYMELHSLTSEDSAVYYCARRGYDEGFAYWGQGTLVTVSS
VL: DILLTQSPAILSVSPGERVSFSCRASQIIGTSILWYQQRTNGSPRLLIKYASESISGIPSRFSGSGSGTDFTLSINSVESEDIADYYCQQSNTWPFTFGGGTKLEMK
notes: Detected with a goat anti-mouse IgG secondary antibody; also called 抗CD4抗体; 抗CD4(CD4-1)抗体
EC50: 0.101 µg/mL
